In PMC12344693, “Human Milk Oligosaccharides Multivalently Presented on Defined Synthetic Neo-Glycoproteins Are Nanomolar Ligands of Tandem-Repeat Galectins” (Biomacromolecules, 2025):

T1: Asialofetuin (UniProt P12763 19-359, asialo form (glycans without sialic acid), by its name only)
T1 construct: asialofetuin (desialylated fetuin); neither source nor species is stated; It is coated on the ELISA plate (0.1 µM in PBS); also called ASF
T1 sequence (looked up): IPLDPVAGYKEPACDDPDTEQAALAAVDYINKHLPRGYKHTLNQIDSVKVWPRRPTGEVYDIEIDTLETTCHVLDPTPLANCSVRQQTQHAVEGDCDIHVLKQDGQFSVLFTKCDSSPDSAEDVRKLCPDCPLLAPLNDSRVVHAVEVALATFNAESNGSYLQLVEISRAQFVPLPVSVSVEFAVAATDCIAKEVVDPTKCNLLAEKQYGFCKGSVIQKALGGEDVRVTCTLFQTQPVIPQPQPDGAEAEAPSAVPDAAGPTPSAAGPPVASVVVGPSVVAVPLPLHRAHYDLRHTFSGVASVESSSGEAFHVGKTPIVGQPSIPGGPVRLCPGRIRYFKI


Columns and labels:
[1] = biological target: T2, neo-glycoprotein NGP5 (LN2-Lac-HSA) (human, UniProt P02768 25-609, LN2-Lac (Galβ4GlcNAcβ3Galβ4Glc) on an ethylthioureidyl linker, coupled through squaric acid to lysine residues; approximately 5 to 9 glycans per HSA molecule (number in Table S7); positions not stated); test: BLI; biotinylated galectin constructs (2 μg/mL in PBS, 0.05% Tween-20) immobilised on streptavidin biosensors; neo-glycoproteins 1.56-100 nM in solution; 25 °C, 850 rpm; association 450 s, dissociation 600 s; Langmuir 1:1 kinetic model; settings: both partners purified
T2 construct: human serum albumin (HSA), carrier protein of the neo-glycoprotein; source: washed with water by ultracentrifugation

[2] = biological target: T1, Asialofetuin; test: ELISA; direct ELISA: ASF immobilised on microtiter plates, serial dilution of the galectin in EPBS (PBS with 2 mM EDTA, 50 µL/well); otherwise as the competitive ELISA (anti-His-tag-HRP detection); settings: both partners purified

Row | Binder | Kd [1] | Kd [2]
1 | Gal-9-AVI-link (monobiotinylated full-length galectin-9) (natural protein, human, UniProt O00182 1-355, looked up, biotin on the single lysine of the AVI-tag (…), human galectin-9 (Gal-9), both CRDs with the linker peptide; prepared as described previously; source: E. coli BL21(λDE3) cotransformed with the birA gene (biotin ligase), biotinylated in vivo; see Supporting Information, Section 6; not shown: (GGS)5 linker between AVI-tag and galectin, N-terminal, kept) MAFSGSQAPYLSPAVPFSGTIQGGLQDGLQITVNGTVLSSSGTRFAVNFQTGFSGNDIAFHFNPRFEDGGYVVCNTRQNGSWGPEERKTHMPFQKGMPFDLCFLVQSSDFKVMVNGILFVQYFHRVPFHRVDTISVNGSVQLSYISFQNPRTVPVQPAFSTVPFSQPVCFPPRPRGRRQKPPGVWPANPAPITQTVIHTVQSAPGQMFSTPAIPPMMYPHPAYPMPFITTILGGLYPSKSILLSGTVLPSAQRFHINLCSGNHIAFHLNPRFDENAVVRNTQIDNSWGSEERSLPRKMPFVRGQSFSVWILCEAHCLKVAVDGQHLFEYYHRLRNLPTINRLEVGGDIQLTHVQT | 0.05 ± 0.01 nM | –
2 | Gal-4-AVI-link (natural protein, human, UniProt P56470 1-323, looked up, biotin on the single lysine of the AVI-tag, human galectin-4, full-length tandem-repeat galectin with the native full-length peptide linker of 28 aa (2979 Da); synthetic gene (Biocat) in pET-Duet1; also called Gal-4 (AVI-tag); source: E. coli BL21(λDE3) co-expressing biotin ligase BirA, purified (Ni-NTA); not shown: His6, N-terminal, kept) MAYVPAPGYQPTYNPTLPYYQPIPGGLNVGMSVYIQGVASEHMKRFFVNFVVGQDPGSDVAFHFNPRFDGWDKVVFNTLQGGKWGSEERKRSMPFKKGAAFELVFIVLAEHYKVVVNGNPFYEYGHRLPLQMVTHLQVDGDLQLQSINFIGGQPLRPQGPPMMPPYPGPGHCHQQLNSLPTMEGPPTFNPPVPYFGRLQGGLTARRTIIIKGYVPPTGKSFAINFKVGSSGDIALHINPRMGNGTVVRNSLLNGSWGSEEKKITHNPFGPGQFFDLSIRCGLDRFKVYANGQHLFDFAHRLSAFQRVDTLEIQGDVTLSYVQI | – | 2300 ± 800 nM
